Target: E. cloacae Cap2 C109A/C548A (catalytically dead), untagged (Enterobacter cloacae)
Test: cryo-EM structure

With “E. cloacae Cap2 C109A/C548A (catalytically dead), untagged (enzyme)” the stoichiometry N was 2.
